# Data taken from publication PMC4358367, “Structural basis of diverse membrane target recognitions by ankyrins” (eLife, 2014).
# B1: AnkB_repeats (24 ANK repeats of human 220 kDa ankyrin-B, residues 28–873) [human] / Cav1.3 peptide (mouse Cav1.3 residues 2134–2166), FITC-labeled [modified: FITC label (position not stated); FITC label (position not stated)] [mouse] (parent complex)
# chain 1: KSDSNASFLRAARAGNLDKVVEYLKGGIDINTCNQNGLNALHLAAKEGHVGLVQELLGRGSSVDSATKKGNTALHIASLAGQAEVVKVLVKEGANINAQSQNGFTPLYMAAQENHIDVVKYLLENGANQSTATEDGFTPLAVALQQGHNQAVAILLENDTKGKVRLPALHIAARKDDTKSAALLLQNDHNADVQSKMMVNRTTESGFTPLHIAAHYGNVNVATLLLNRGAAVDFTARNGITPLHVASKRGNTNMVKLLLDRGGQIDAKTRDGLTPLHCAARSGHDQVVELLLERGAPLLARTKNGLSPLHMAAQGDHVECVKHLLQHKAPVDDVTLDYLTALHVAAHCGHYRVTKLLLDKRANPNARALNGFTPLHIACKKNRIKVMELLVKYGASIQAITESGLTPIHVAAFMGHLNIVLLLLQNGASPDVTNIRGETALHMAARAGQVEVVRCLLRNGALVDARAREEQTPLHIASRLGKTEIVQLLLQHMAHPDAATTNGYTPLHISAREGQVDVASVLLEAGAAHSLATKKGFTPLHVAAKYGSLDVAKLLLQRRAAADSAGKNGLTPLHVAAHYDNQKVALLLLEKGASPHATAKNGYTPLHIAAKKNQMQIASTLLNYGAETNIVTKQGVTPLHLASQEGHTDMVTLLLDKGANIHMSTKSGLTSLHLAAQEDKVNVADILTKHGADQDAHTKLGYTPLIVACHYGNVKMVNFLLKQGANVNAKTKNGYTPLHQAAQQGHTHIINVLLQHGAKPNATTANGNTALAIAKRLGYISVVDTLKVVTEEVTTTTTTITEKHKLNVPETMTEVLDVSDEEGDDTMTGDGGEYLRPEDLKELGDD
# chain 2: ELQDFGPGYSDEEPDPGREEEDLADEMICITTL
# Variants of: B1
# Assay: fluorescence polarisation; parent: 3.3e+03 nM
row,Kd [µM],Variant
1,3.3,"chain 1 F104Q, chain 1 F137Q"
2,8.2,"chain 1 I240Q, chain 1 L273Q"
3,4,"chain 1 L339Q, chain 1 F372Q, chain 1 L405Q"
